Patent US20240101715A1 (KINDRED BIOSCIENCES, published 2024)
Residue numbers refer to the chain shown, from its start.

B1: KBA v1 (caninized TNFα D2E7 antibody: KBA VL v1 and canine kappa light constant region; caninized variable heavy chain of D2E7 and canine IgG-B constant region) (antibody, V domains shown)
VH: EVQLVESGGDLVKPGGSLRLSCVASGFTFDDYAMHWVRQAPGKGLQWVSAITWNSGHIDYADAVKGRFTISRDNAKNTLYLQMNSLRAEDTAVYYCAKVSYLSTASSLDYWGQGTLVTVSS
VL: DIVMTQTPLSLSASPGEPVSISCRASQGIRNYLAWYLQKPGQSPRLLIYAASTLQSGVPDRFSGSGSGTDFTLRIGRLEAEDAAIYYCQRYNRAPYTFGQGTKVEIKR
notes: Full light and heavy chains without leader; expressed in CHO cells, purified on Protein A; also called KIND-509
B2: KBA v2 (caninized TNFα D2E7 antibody: KBA VL v2 and canine kappa light constant region; caninized variable heavy chain of D2E7 and canine IgG-B constant region) (antibody, V domains shown)
VH: B1 VH
VL: B1 VL with L9P, Y36F, L37R, R45Q, P59S, G76S, E81D, I85V
notes: Full light and heavy chains without leader; expressed in CHO cells, purified on Protein A
B3: bispecific molecule comprising SEQ ID NO: 77 and SEQ ID NO: 81 (anti-NGF + Fc IgGB (FcRn long-acting Q to Y, C1q-, CD16-) + anti-TNF ScFv) (bispecific antibody)
light: EIVMTQSPGSLAGSAGESVSINCRASEDIYNALAWYQQKPGERPKLLIYNTDTLHTGVPARFSSSGSGTDFTLTINNLQAEDVGDYFCQHYFGYPRTFGAGTKVELKRNDAQPAVYLFQPSPDQLHTGSASVVCLLNSFYPKDINVKWKVDGVIQDTGIQESVTEQDKDSTYSLSSTLTMSSTEYLSHELYSCEITHKSLPSTLIKSFQRSECQRVD
heavy: not shown
notes: Expressed in mammalian cells, purified on Protein A; also called bispecific anti-canine TNF and anti-canine NGF molecule

What was measured:
canine TNFα [1] = target: T1, canine TNFα (canine, UniProt P51742 77-233, biotinylated (EZ-Link NHS-LC-biotin) in Example 2); assay: BLI (ForteBio), biotinylated TNFα on streptavidin tips, antibody in solution, 1:1 model
T1 construct: Bought recombinant protein; also called cTNFα; canine TNF-alpha
T1 sequence (P51742 77-233 limits assumed): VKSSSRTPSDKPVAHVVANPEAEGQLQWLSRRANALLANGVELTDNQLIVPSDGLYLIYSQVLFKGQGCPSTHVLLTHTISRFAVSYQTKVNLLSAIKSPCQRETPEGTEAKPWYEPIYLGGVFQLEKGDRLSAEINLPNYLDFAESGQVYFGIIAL
Procedure: (§1) The binding analysis was performed as follows. Briefly, canine and human TNFα were biotinylated. The free unreacted biotin was removed from biotinylated TNFα by extensive dialysis. Biotinylated TNFα was captured on streptavidin sensor tips. The association of five different concentrations (150, 50, 17, 5.6, and 1.9 nM) of TNFα antibody and TNFα (human and canine, in different tests) was monitored for ninety seconds. Dissociation was monitored for 600 seconds. A buffer only blank curve was subtracted to correct for any drift. The data were fit to a 1:1 binding model using ForteBio™ data analysis software to determine the kon (association rate constant), koff (dissociation rate constant) and the KD (dissociation constant). […] The buffer for dilutions and all binding steps was: 200 mM phosphate, 150 mM NaCl, 0.02% Tween-20, 0.05% sodium azide, and 0.1 mg BSA, pH7.4.

human TNFα = target: T2, human TNFα (human, UniProt P01375 77-233, biotinylated (EZ-Link NHS-LC-biotin) in Example 2); assay: as above
T2 construct: Bought recombinant protein
T2 sequence (P01375 77-233 limits assumed): as the sequence (P51742 77-233 limits assumed) above, with K2R, E21Q, S30N, T44R, I49V, D53E, F83I, T109A, L138R, N140D counted along it
Procedure: as §1

canine TNFα [2] = target: T1, canine TNFα; assay: BLI (biosensor Octet), format not stated

Binder | Kd (canine TNFα [1]) [nM] | koff (canine TNFα [1]) [s⁻¹] | kon (canine TNFα [1]) [M⁻¹ s⁻¹] | Kd (human TNFα) [nM] | koff (human TNFα) [s⁻¹] | kon (human TNFα) [M⁻¹ s⁻¹] | Kd (canine TNFα [2]) [nM]
B1 | 0.0988 | 8.28e-05 | 839000 | 0.0207 | 1.53e-05 | 741000 | 
B2 | 0.303 | 0.000216 | 713000 | 0.269 | 0.00015 | 575000 | 
B3 |  |  |  |  |  |  | 0.838
